Experimental findings from article PMC11601812, “Structural proteomics defines a sequential priming mechanism for the progesterone receptor” (Research Square, 2024) are described below.

B1: steroid receptor coactivator 3 (SRC3), full-length, Strep II tagged (natural protein)
chain: not shown
notes: full-length open reading frame, codon-optimised for insect cells; NR-boxes at 685-689, 738-742 and 1057-1061; no cleavage step is described; source: Sf9 insect cells (baculovirus), purified (StrepTrap XT, SEC); not shown: Strep II, N-terminal, kept
B2: progesterone receptor isoform B (PR-B), full-length, Strep II tagged (receptor, human, UniProt P06401 1-933, looked up)
chain: MTELKAKGPRAPHVAGGPPSPEVGSPLLCRPAAGPFPGSQTSDTLPEVSAIPISLDGLLFPRPCQGQDPSDEKTQDQQSLSDVEGAYSRAEATRGAGGSSSSPPEKDSGLLDSVLDTLLAPSGPGQSQPSPPACEVTSSWCLFGPELPEDPPAAPATQRVLSPLMSRSGCKVGDSSGTAAAHKVLPRGLSPARQLLLPASESPHWSGAPVKPSPQAAAVEVEEEDGSESEESAGPLLKGKPRALGGAAAGGGAAAVPPGAAAGGVALVPKEDSRFSAPRVALVEQDAPMAPGRSPLATTVMDFIHVPILPLNHALLAARTRQLLEDESYDGGAGAASAFAPPRSSPCASSTPVAVGDFPDCAYPPDAEPKDDAYPLYSDFQPPALKIKEEEEGAEASARSPRSYLVAGANPAAFPDFPLGPPPPLPPRATPSRPGEAAVTAAPASASVSSASSSGSTLECILYKAEGAPPQQGPFAPPPCKAPGASGCLLPRDGLPSTSASAAAAGAAPALYPALGLNGLPQLGYQAAVLKEGLPQVYPPYLNYLRPDSEASQSPQYSFESLPQKICLICGDEASGCHYGVLTCGSCKVFFKRAMEGQHNYLCAGRNDCIVDKIRRKNCPACRLRKCCQAGMVLGGRKFKKFNKVRVVRALDAVALPQPVGVPNESQALSQRFTFSPGQDIQLIPPLINLLMSIEPDVIYAGHDNTKPDTSSSLLTSLNQLGERQLLSVVKWSKSLPGFRNLHIDDQITLIQYSWMSLMVFGLGWRSYKHVSGQMLYFAPDLILNEQRMKESSFYSLCLTMWQIPQEFVKLQVSQEEFLCMKVLLLLNTIPLEGLRSQTQFEEMRSSYIRELIKAIGLRQKGVVSSSQRFYQLTKLLDNLHDLVKQLHLYCLNTFIQSRALSVEFPEMMSEVIAAQLPKILAGMVKPLLFHKK
notes: Progesterone receptor isoform PR-B, human; full-length open reading frame (residues up to 933 are named), codon-optimised for insect cells; no cleavage step is described and the DSF methods call the purified proteins SII-tagged; Carries R5020 or RU486 according to the assay; In the functional row PR-B was expressed from a VectorBuilder plasmid in 293T cells (hRluc:P2A:hPGR), not this Sf9 protein; …
B3: progesterone receptor isoform A (PR-A), full-length, Strep II tagged (receptor, human, UniProt P06401-2 1-769, looked up)
chain: MSRSGCKVGDSSGTAAAHKVLPRGLSPARQLLLPASESPHWSGAPVKPSPQAAAVEVEEEDGSESEESAGPLLKGKPRALGGAAAGGGAAAVPPGAAAGGVALVPKEDSRFSAPRVALVEQDAPMAPGRSPLATTVMDFIHVPILPLNHALLAARTRQLLEDESYDGGAGAASAFAPPRSSPCASSTPVAVGDFPDCAYPPDAEPKDDAYPLYSDFQPPALKIKEEEEGAEASARSPRSYLVAGANPAAFPDFPLGPPPPLPPRATPSRPGEAAVTAAPASASVSSASSSGSTLECILYKAEGAPPQQGPFAPPPCKAPGASGCLLPRDGLPSTSASAAAAGAAPALYPALGLNGLPQLGYQAAVLKEGLPQVYPPYLNYLRPDSEASQSPQYSFESLPQKICLICGDEASGCHYGVLTCGSCKVFFKRAMEGQHNYLCAGRNDCIVDKIRRKNCPACRLRKCCQAGMVLGGRKFKKFNKVRVVRALDAVALPQPVGVPNESQALSQRFTFSPGQDIQLIPPLINLLMSIEPDVIYAGHDNTKPDTSSSLLTSLNQLGERQLLSVVKWSKSLPGFRNLHIDDQITLIQYSWMSLMVFGLGWRSYKHVSGQMLYFAPDLILNEQRMKESSFYSLCLTMWQIPQEFVKLQVSQEEFLCMKVLLLLNTIPLEGLRSQTQFEEMRSSYIRELIKAIGLRQKGVVSSSQRFYQLTKLLDNLHDLVKQLHLYCLNTFIQSRALSVEFPEMMSEVIAAQLPKILAGMVKPLLFHKK
notes: Progesterone receptor isoform PR-A, human; N-terminal truncation (missing aa 1-164) of full-length PR-B; no cleavage step is described and the DSF methods call the purified proteins SII-tagged; Carries the steroid R5020 (agonist) or RU486 (antagonist) according to the assay; Monomer without DNA, dimer on PRE DNA by SEC-MALS; The reporter-assay plasmids carry hPGR NM_000926.4 and NM_001202474.3; …

For data set [1], the target named is B3. In words: SEC-MALS; R5020-bound PR-A, SRC3 and p300 mixed with PRE DNA; Superose 6 Increase; 20 mM Hepes, 50 mM NaCl, 5% glycerol, 1 mM TCEP, with or without 1 M urea, pH 7.5. The following applies: both partners purified. (In gel filtration, larger molecules generally elute earlier.)
The target of data set [2] is T1, histone acetyltransferase p300, full-length, Strep II tagged (human, UniProt Q09472 1-2414).
T1 construct: Histone acetyltransferase p300, human; full-length open reading frame, codon-optimised for insect cells; no cleavage step is described; source: Sf9 insect cells (baculovirus), purified (StrepTrap XT, SEC); not shown: Strep II, N-terminal, kept
T1 sequence (Q09472 whole entry): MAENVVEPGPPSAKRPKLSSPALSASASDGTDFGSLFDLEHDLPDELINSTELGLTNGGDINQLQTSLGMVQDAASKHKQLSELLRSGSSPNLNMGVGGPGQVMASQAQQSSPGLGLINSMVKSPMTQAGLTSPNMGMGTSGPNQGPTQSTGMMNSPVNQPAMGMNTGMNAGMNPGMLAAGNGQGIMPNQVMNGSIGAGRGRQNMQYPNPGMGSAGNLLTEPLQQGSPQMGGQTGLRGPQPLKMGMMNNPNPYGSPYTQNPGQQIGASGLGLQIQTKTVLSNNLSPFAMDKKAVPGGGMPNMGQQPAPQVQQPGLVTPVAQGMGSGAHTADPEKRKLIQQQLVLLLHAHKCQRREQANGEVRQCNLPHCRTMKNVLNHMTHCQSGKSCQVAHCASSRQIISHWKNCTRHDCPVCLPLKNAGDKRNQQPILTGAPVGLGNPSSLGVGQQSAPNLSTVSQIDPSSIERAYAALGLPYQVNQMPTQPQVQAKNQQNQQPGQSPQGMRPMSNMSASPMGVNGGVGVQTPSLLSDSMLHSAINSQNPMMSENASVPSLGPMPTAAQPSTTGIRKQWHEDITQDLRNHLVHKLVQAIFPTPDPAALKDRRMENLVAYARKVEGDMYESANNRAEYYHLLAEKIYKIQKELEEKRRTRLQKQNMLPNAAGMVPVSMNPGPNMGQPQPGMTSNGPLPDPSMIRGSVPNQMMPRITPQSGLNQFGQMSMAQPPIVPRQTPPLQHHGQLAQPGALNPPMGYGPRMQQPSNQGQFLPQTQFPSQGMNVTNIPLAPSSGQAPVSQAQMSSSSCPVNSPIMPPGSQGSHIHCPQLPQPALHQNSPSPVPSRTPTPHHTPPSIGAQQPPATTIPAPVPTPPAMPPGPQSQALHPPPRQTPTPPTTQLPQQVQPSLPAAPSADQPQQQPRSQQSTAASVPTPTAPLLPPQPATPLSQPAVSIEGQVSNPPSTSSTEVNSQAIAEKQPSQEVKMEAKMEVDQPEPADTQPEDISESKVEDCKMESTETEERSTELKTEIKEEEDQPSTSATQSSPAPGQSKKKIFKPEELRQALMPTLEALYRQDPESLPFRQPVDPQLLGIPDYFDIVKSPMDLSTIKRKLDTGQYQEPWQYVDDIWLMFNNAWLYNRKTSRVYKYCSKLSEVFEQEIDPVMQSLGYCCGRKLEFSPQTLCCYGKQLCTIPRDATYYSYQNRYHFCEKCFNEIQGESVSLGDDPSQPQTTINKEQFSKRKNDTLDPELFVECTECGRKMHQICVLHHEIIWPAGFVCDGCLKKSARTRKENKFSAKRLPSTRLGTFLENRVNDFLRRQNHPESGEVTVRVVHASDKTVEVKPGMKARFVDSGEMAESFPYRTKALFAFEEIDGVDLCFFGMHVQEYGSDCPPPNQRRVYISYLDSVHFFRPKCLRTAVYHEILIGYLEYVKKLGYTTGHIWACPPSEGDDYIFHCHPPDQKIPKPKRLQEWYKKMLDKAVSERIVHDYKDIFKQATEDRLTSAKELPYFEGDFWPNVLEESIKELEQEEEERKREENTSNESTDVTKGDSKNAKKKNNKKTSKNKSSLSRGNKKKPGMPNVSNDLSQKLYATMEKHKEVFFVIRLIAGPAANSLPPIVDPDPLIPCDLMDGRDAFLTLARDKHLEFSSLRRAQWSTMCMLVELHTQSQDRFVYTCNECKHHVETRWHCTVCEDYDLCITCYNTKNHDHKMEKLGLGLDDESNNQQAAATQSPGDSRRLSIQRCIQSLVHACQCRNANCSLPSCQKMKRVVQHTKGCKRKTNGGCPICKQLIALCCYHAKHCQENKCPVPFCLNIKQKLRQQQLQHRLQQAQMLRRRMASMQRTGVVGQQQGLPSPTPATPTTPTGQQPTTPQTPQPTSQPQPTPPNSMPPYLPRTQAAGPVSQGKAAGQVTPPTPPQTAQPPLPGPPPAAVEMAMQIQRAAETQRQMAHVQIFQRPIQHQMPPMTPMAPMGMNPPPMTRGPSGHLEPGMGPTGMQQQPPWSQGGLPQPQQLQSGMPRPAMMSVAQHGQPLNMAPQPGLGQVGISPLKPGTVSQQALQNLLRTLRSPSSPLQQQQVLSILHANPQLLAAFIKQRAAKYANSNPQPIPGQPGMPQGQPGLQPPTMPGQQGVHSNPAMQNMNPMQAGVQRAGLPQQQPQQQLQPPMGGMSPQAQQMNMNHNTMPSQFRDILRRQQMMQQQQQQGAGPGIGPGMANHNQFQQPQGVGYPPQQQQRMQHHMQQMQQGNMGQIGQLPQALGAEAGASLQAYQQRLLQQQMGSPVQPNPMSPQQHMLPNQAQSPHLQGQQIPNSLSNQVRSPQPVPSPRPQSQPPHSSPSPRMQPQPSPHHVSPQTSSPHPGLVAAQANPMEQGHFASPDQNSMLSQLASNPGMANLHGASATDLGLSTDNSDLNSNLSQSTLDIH
Kind of data set: HDX-MS; differential, R5020-bound PR:SRC3 vs PR:SRC3:p300, with and without PRE DNA, sequential addition (DNA, PR, SRC3, p300); 4 C, 20 mM Hepes, 200 mM NaCl, 1 M urea, 1 mM TCEP, 5% glycerol, pD 7.9. The following applies: both partners purified.

For data set [3], the target named is T1, histone acetyltransferase p300, …. Kind of data set: cross-linking; DSSO XL-MS of two proteins (R5020-bound PR with SRC3, or PR-B with p300 without SRC3), with and without PRE DNA; PR 5 uM, 3 mM DSSO, 25 C 45 min; 20 mM Hepes pH 7.5, 200 mM NaCl, 1 M urea, 1 mM TCEP, 5% glycerol. The following applies: both partners purified.
Data set [4] concerns the molecule itself. In words: SEC-MALS; each protein alone, PR bound to agonist R5020, no DNA; Superose 6 Increase; 20 mM Hepes, 50 mM NaCl, 5% glycerol, 1 mM TCEP, with or without 1 M urea, pH 7.5; about 20-100 ug injected.
Data set [5] has as its target B1. In words: HDX-MS; differential, R5020-bound PR vs PR:SRC3 and SRC3 vs PR:SRC3, with and without PRE DNA (2:1:1 PR:SRC3:PRE), sequential addition; 4 C, 20 mM Hepes, 200 mM NaCl, 1 M urea, 1 mM TCEP, 5% glycerol, pD 7.9. The following applies: both partners purified.
Data set [6] deals with the molecule itself. Kind of data set: SEC-MALS; R5020-bound PR mixed with 32-mer PRE DNA; Superose 6 Increase; 20 mM Hepes, 50 mM NaCl, 5% glycerol, 1 mM TCEP, with or without 1 M urea, pH 7.5.
Data set [7] deals with T1, histone acetyltransferase p300, …. Kind of data set: cross-linking; DSSO XL-MS of R5020-bound PR:SRC3:p300, with and without PRE DNA (PR:SRC3:p300:DNA 2:1:1:1.5); PR 5 uM, 3 mM DSSO, 25 C 45 min; 20 mM Hepes pH 7.5, 200 mM NaCl, 1 M urea, 1 mM TCEP, 5% glycerol. The following applies: both partners purified.

Usually stoichiometry N stands for a count of units in the complex or per binding partner. Consider B1, for which the “stoichiometry N” value in data set [1] amounted to 0.5. Moreover, the binding result in data set [2] is “binds”.
On to B2, for which the binding result in data set [3] and in data set [5] was “binds” each time. Also, the “stoichiometry N” value in data set [4] was determined as 2.
As for B3, the “stoichiometry N” value in data set [6] came out at 2. Further, the binding result in data set [5] and in data set [7] was “binds” each time.
